Laboratory results: article PMC7515736, “Genome-wide binding of [sequence]3 and AGAMOUS complexes determined by sequential DNA-affinity purification sequencing”

How the values were obtained:
[1] = target: SEP3Δtet (SEP3 splice variant);AG (AGAMOUS) (Arabidopsis thaliana;Arabidopsis …, UniProt F4I972;P17839 1-237;1-252, del161-174|); experiment: EMSA; dimer; EMSA as in the authors' ref. 20 (buffer, salt, pH, temperature not given); Cy5 probes; unpurified wheat germ TnT proteins; details: protein: ivt;ivt; tags: C-terminal 3xFLAG;C-terminal 5xMyc; copies: 1;1; label: Cy5; blunt
[2] = target: SEP3 (…3);AG (AGAMOUS) (Arabidopsis thaliana;Arabidopsis …, UniProt O22456;P17839 1-251;1-252, |); experiment: EMSA; tetramer; EMSA as in the authors' ref. 20 (buffer, salt, pH, temperature not given); Cy5 probes; unpurified wheat germ TnT proteins; details: protein: ivt;ivt; tags: C-terminal 3xFLAG;C-terminal 5xMyc; copies: 1;1; label: Cy5; blunt
Chain of SEP3 (…3);AG (AGAMOUS) (O22456 whole entry, chain 1 of 2): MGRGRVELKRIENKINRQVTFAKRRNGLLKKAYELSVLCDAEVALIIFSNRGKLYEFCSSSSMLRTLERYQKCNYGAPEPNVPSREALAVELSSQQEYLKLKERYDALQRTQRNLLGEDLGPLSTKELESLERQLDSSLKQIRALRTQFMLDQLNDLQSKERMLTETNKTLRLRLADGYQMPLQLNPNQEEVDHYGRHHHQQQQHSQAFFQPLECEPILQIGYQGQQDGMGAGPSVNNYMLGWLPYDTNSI
Chain of SEP3 (…3);AG (AGAMOUS) (P17839 whole entry, chain 2 of 2): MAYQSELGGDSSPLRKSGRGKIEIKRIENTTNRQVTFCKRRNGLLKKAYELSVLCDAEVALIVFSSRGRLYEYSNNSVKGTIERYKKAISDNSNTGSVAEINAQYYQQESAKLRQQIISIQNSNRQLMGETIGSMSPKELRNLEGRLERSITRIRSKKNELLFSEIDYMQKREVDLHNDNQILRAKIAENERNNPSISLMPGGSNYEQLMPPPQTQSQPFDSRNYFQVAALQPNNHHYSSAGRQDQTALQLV

Chain of SEP3Δtet (SEP3 splice variant);AG (AGAMOUS) (P17839 other isoform, or with tags, fused parts or gaps del161-174| | mutant, chain 1 of 2): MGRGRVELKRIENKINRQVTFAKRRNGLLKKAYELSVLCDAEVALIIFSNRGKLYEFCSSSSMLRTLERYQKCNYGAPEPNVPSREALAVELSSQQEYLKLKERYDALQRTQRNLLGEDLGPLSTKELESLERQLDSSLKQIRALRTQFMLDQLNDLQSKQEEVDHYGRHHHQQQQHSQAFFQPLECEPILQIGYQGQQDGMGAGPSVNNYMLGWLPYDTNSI
Chain of SEP3Δtet (SEP3 splice variant);AG (AGAMOUS) (P17839 whole entry, stated change not applied, chain 2 of 2, canonical isoform): as the sequence (P17839 whole entry, chain 2 of 2) above

Binder | binding result [1] | binding result [2]
KNU -5 (96 bp) (dsDNA) DNA 1: AGAGGGTAAGAGAAACATAGAAACCTTCCATGTTTGGCAATTTCATCTTGGAACTTACTCTCTCTTGTCTTCTTTGTGCATCACAAGAACAACAAA DNA 2: TTTGTTGTTCTTGTGATGCACAAAGAAGACAAGAGAGAGTAAGTTCCAAGATGAAATTGCCAAACATGGAAGGTTTCTATGTTTCTCTTACCCTCT | binds | –
KNU +10 probe (106 bp) (dsDNA) DNA 1: GGTAAGAGAAACATAGAAACCTTCCATGTTTGGCAATTTCATCTTGGAAGTCAGTAGCTCTTGATTCACTCTCTCTTGTCTTCTTTGTGCATCACAAGAACAACAA DNA 2: TTGTTGTTCTTGTGATGCACAAAGAAGACAAGAGAGAGTGAATCAAGAGCTACTGACTTCCAAGATGAAATTGCCAAACATGGAAGGTTTCTATGTTTCTCTTACC | – | binds
KNU +10 (96 bp) (dsDNA) DNA 1: AAACATAGAAACCTTCCATGTTTGGCAATTTCATCTTGGAAGTCAGTAGCTCTTGATTCACTCTCTCTTGTCTTCTTTGTGCATCACAAGAACAAC DNA 2: GTTGTTCTTGTGATGCACAAAGAAGACAAGAGAGAGTGAATCAAGAGCTACTGACTTCCAAGATGAAATTGCCAAACATGGAAGGTTTCTATGTTT | binds | binds
KNU -10 probe (86 bp) (dsDNA) DNA 1: GGTAAGAGAAACATAGAAACCTTCCATGTTTGGCAATTTCATCTTGGACTCTCTCTTGTCTTCTTTGTGCATCACAAGAACAACAA DNA 2: TTGTTGTTCTTGTGATGCACAAAGAAGACAAGAGAGAGTCCAAGATGAAATTGCCAAACATGGAAGGTTTCTATGTTTCTCTTACC | – | binds
KNU +5 (96 bp) (dsDNA) DNA 1: AGAGAAACATAGAAACCTTCCATGTTTGGCAATTTCATCTTGGAAGTCAGCTTGATTCACTCTCTCTTGTCTTCTTTGTGCATCACAAGAACAACA DNA 2: TGTTGTTCTTGTGATGCACAAAGAAGACAAGAGAGAGTGAATCAAGCTGACTTCCAAGATGAAATTGCCAAACATGGAAGGTTTCTATGTTTCTCT | binds | –
KNU -10 (96 bp) (dsDNA) DNA 1: GAAAGAGGGTAAGAGAAACATAGAAACCTTCCATGTTTGGCAATTTCATCTTGGACTCTCTCTTGTCTTCTTTGTGCATCACAAGAACAACAAATA DNA 2: TATTTGTTGTTCTTGTGATGCACAAAGAAGACAAGAGAGAGTCCAAGATGAAATTGCCAAACATGGAAGGTTTCTATGTTTCTCTTACCCTCTTTC | binds | binds
KNU WT (dsDNA) DNA 1: GGTAAGAGAAACATAGAAACCTTCCATGTTTGGCAATTTCATCTTGGAACTTGATTCACTCTCTCTTGTCTTCTTTGTGCATCACAAGAACAACAA DNA 2: TTGTTGTTCTTGTGATGCACAAAGAAGACAAGAGAGAGTGAATCAAGTTCCAAGATGAAATTGCCAAACATGGAAGGTTTCTATGTTTCTCTTACC | binds | binds
